Results on one molecule are retold here after patent US20240294670A1 (University of Texas, published 2024).

In one test the target is T1, Q5FW97_MOUSE (mouse, UniProt Q5FW97 2-434).
T1 construct: also called tr|Q5FW97|Q5FW97_MOUSE
Nature of the test: anti-His co-IP of rCHI3L1 from Kupffer cell lysate, MS; listed under 'proteins bound to CHI3L1'. In short, it runs like this:
(§1)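 Kupffer cells from WT mice 3 h after APAP were incubated with His-tagged rCHI3L1; lysate immunoprecipitated with anti-His antibody and the pulled-down fraction identified by LC/MS.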

Another test concerns the target T2, Q3TJ66_MOUSE (mouse, UniProt Q3TJ66 2-364).
T2 construct: also called tr|Q3TJ66|Q3TJ66_MOUSE
T2 sequence: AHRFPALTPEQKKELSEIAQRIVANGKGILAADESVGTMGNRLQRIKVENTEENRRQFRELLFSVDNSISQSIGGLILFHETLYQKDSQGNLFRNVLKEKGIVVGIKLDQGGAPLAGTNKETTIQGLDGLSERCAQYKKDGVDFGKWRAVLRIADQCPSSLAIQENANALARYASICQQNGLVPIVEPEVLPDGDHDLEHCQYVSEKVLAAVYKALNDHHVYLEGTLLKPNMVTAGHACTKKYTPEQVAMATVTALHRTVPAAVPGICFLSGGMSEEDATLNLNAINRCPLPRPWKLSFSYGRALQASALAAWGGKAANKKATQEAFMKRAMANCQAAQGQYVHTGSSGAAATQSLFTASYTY
Described as above. In short, it runs like this:
as §1

T1 sequence (Q5FW97 entry or part of it limits assumed): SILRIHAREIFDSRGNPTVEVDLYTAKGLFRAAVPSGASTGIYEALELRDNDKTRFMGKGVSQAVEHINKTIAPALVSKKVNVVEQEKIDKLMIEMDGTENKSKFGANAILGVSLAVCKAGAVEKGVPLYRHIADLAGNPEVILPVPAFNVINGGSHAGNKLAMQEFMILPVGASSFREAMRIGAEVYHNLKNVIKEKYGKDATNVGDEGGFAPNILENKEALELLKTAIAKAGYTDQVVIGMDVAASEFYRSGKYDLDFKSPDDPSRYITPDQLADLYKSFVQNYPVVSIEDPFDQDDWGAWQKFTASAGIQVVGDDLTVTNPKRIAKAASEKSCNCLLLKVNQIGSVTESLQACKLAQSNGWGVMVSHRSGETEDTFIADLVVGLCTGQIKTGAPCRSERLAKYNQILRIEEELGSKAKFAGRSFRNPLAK

B1: recombinant mouse CHI3L1 (ligand)
chain: not shown
notes: His-tagged; also called mCHI3L1; mChi3l1
Turning to B1, the binding result with Q5FW97_MOUSE and with Q3TJ66_MOUSE was “binds” each time.
